Measurements from US20220332804A1 (CSL INNOVATION, published 2022).

Assays:
Assay in all cases: SPR, mAb captured, C2 mutant analyte;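 also: Anti-C2 mAbs captured on goat anti-human IgG Biacore CM5 chips, alanine or serine C2 surface mutants flowed over at 37 °C, double-referenced sensorgrams fitted to a 1:1 binding model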
[1] = biological target: T1, human C2 H331A (human, UniProt P06681 21-752)
T1 sequence: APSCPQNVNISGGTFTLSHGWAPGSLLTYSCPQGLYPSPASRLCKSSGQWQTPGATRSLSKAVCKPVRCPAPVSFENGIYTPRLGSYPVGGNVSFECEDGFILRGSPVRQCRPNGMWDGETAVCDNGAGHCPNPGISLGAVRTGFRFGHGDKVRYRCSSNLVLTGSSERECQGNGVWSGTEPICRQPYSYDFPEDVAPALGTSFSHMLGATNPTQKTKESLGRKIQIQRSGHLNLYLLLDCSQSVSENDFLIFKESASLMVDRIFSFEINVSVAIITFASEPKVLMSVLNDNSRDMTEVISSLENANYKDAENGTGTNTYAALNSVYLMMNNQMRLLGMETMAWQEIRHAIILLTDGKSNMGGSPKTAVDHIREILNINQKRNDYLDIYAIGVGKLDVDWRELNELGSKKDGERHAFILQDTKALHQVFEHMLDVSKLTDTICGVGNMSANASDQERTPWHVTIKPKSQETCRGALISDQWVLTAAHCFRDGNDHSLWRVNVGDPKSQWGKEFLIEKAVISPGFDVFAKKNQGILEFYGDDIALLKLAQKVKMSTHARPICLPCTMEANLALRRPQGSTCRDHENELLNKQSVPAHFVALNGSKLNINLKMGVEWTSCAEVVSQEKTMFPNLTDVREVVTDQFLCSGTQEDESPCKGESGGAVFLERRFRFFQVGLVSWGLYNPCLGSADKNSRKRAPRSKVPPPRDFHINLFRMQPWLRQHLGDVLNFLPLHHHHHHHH

[2] = biological target: T2, human C2 T442A (human, UniProt P06681 21-752)
T2 sequence: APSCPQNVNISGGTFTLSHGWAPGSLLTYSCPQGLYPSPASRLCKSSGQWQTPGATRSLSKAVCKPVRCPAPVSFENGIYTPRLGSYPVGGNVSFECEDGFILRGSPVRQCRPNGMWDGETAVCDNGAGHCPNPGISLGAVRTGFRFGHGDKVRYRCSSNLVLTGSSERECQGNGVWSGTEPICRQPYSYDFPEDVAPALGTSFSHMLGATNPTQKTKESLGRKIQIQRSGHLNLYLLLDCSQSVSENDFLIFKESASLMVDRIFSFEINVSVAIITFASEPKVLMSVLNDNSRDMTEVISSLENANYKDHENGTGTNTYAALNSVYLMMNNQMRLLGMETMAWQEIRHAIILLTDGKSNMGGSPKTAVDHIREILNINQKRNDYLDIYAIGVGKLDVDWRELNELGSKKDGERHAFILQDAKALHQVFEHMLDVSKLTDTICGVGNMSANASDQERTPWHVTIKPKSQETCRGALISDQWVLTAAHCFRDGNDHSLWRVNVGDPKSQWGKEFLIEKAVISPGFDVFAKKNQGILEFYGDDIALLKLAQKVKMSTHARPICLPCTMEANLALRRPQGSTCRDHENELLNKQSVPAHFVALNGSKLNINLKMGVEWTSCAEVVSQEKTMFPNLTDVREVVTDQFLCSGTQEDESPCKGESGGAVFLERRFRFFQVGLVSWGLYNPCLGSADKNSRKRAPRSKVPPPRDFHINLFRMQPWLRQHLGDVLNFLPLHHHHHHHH

[3] = biological target: T3, human C2 E450A (human, UniProt P06681 21-752)
T3 sequence: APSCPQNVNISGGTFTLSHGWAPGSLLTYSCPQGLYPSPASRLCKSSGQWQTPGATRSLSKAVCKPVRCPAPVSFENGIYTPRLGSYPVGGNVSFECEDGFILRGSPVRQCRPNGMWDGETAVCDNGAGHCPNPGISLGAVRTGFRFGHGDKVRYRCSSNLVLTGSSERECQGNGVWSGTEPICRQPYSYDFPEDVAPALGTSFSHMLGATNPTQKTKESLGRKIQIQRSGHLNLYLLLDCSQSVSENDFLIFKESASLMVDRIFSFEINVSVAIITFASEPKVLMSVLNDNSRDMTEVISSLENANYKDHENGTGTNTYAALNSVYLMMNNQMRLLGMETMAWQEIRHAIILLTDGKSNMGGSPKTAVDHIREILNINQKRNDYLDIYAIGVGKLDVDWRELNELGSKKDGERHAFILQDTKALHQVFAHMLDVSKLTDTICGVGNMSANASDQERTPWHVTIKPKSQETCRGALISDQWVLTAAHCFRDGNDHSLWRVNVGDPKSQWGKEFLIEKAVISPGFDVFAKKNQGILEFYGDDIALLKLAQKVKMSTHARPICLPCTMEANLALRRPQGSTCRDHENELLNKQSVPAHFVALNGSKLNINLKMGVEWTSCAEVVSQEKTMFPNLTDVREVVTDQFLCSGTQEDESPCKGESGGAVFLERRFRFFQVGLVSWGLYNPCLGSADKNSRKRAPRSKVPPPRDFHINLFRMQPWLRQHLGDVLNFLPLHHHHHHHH

[4] = biological target: T4, human C2 R493A (human, UniProt P06681 21-752)
T4 sequence: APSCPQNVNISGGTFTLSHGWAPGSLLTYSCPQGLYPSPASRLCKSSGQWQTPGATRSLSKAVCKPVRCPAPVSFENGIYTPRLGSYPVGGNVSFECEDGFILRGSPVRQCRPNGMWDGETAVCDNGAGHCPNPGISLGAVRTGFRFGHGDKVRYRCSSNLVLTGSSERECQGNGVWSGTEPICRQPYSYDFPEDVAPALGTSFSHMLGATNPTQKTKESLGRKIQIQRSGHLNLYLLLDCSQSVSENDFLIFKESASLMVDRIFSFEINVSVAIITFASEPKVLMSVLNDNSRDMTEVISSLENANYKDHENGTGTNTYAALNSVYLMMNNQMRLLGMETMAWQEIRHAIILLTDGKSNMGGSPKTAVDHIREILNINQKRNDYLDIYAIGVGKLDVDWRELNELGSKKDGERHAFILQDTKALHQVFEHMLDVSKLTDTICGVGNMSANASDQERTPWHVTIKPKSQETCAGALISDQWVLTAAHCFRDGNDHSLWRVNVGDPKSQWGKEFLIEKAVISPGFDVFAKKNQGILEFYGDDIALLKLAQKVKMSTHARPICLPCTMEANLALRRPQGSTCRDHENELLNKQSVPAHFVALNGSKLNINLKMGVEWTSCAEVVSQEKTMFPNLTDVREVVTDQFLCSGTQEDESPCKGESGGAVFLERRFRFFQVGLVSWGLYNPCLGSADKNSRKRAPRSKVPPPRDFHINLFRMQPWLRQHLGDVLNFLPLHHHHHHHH

- binding result [1]: no binding
- Kd [2]: 70.7 nM
- Kd [3]: 627 nM
- Kd [4]: 25.3 nM
B1: RF16-214 (antibody, V domains shown)
VH: EVQLLESGGGLVQPGGSLRLSCAASGFTFSWYQMMWVRQAPGKGLEWVSRIYPSGGGTAYADSVKGRFTISRDNSKNTLYLQMNSLRAEDTAVYYCARDAGYGDNWGQGTLVTVSS
VL: QSALTQPPSVSVSPGQTASITCSGDKLGEKYASWYQQKAGQSPVMVIYQDRKRPSGIPERFSGSNSGNTATLTISGTQAMDEADYYCQAWDTRAVVFGGGTKLTVLG
